Source: PMC5562730, “Three recombinantly expressed apple tyrosinases suggest the amino acids responsible for mono- versus diphenolase activity in plant polyphenol oxidases” (Scientific Reports, 2017)

Legend:
[1] = substrate: NCCc1ccc(O)c(O)c1; assay: purified protein; format: biochemical, Malus domestica; details: 50 mM Tris-HCl pH 7.0, 25 °C, 3 mM SDS as activator
[2] = substrate: NCCc1ccc(O)cc1; assay: purified protein; format: biochemical, Malus domestica; details: 50 mM Tris-HCl pH 7.0, 25 °C, 3 mM SDS as activator

B1: MdPPO1 (Malus domestica) (protein)
chain: KPIAPPDVSKCGPADLPQGAVPTNCCPPPSTKIIDFKLPAPAKLRIRPPAHAVDQAYRDKYYKAMELMKALPDDDPRSFKQQAAVHCAYCDGAYDQVGFPELELQIHNSWLFFPFHRYYLYFFEKILGKLINDPTFALPFWNWDSPAGMPLPAIYADPKSPLYDKLRSANHQPPTLVDLDYNGTEDNVSKETTINANLKIMYRQMVSNSKNAKLFFGNPYRAGDEPDPGGGSIEGTPHAPVHLWTGDNTQPNFEDMGNFYSAGRDPIFFAHHSNVDRMWSIWKTLGGKRTDLTDSDWLDSGFLFYNENAELVRVKVRDCLETKNLGYVYQDVDIPWLSSKPTPRRAKVALSKVAKKLGVAHAAVASSSKVVAGTEFPISLGSKISTVVKRPKQKKRSKKAKEDEEEILVIEGIEFDRDVAVKFDVYVNDVDDLPSGPDKTEFAGSFVSVPHSHKHKKKMNTILRLGLTDLLEEIEAEDDDSVVVTLVPKFGAVKIGGIKIEFAS
notes: latent pro-enzyme without transit peptide, C-terminal domain kept; GST tag cut (HRV3C, pGEX-6P-1 SmaI); E. coli BL21
Work on B1 yielded a Km [1] of 480 ± 38 µM, a kcat [1] of 100 ± 4.54 s⁻¹ and a Km [2] of 710 ± 36 µM. It also gave a kcat [2] of 9.5 ± 0.43 s⁻¹.
